In paper PMC12075633:
Several values for one entry are separate records, joined by “and”; a condition that tells them apart may be missing. Equal entries are not always repeated.

Columns and labels:
[1] = target: ECF module (EcfA_K122C, EcfA', EcfT) of the C-sensor, cysteine-less background, fluorophore-labelled (Lactobacillus delbrueckii); assay: FRET or BRET; single-molecule FRET, TIRF; labelled complex in immobilised liposomes (protein to lipid 1:10.000) with 10 mM Mg-ATP outside (or on both sides), with or without 10 µM vitamin B12 in the lumen; 50 mM KPi pH 7.5, 150 mM NaCl; 90 s recordings, 200 ms frames
[2] = target: ECF module (EcfA_K122C, EcfA', EcfT) of the C-sensor, cysteine-less background, fluorophore-labelled (Lactobacillus delbrueckii); assay: FRET or BRET; single-molecule FRET, TIRF; labelled complex reconstituted in liposomes (E. coli polar lipids:PC:DOPE-biotin, protein to lipid 1:10.000) immobilised by biotin-neutravidin; 50 mM KPi pH 7.5, 150 mM NaCl; apo, also with Mg-AMP-PNP, Mg-ADP or 10 µM vitamin B12 alone; 90 s recordings, 200 ms frames

- half-life to the first dissociation event after ATP addition (ATPout + B12in) [1]: 7 s
- half-life to the first dissociation event after ATP addition (ATPout) [1]: 10 s
- mean dwell time of the associated state (10 mM Mg-ATP outside; with or without vitamin B12, not told which) [1]: 7.9 s and 8.7 s
- mean dwell time of the dissociated state (10 mM Mg-ATP outside, with and without vitamin B12) [1]: 20 s
- percent of dynamic traces (association/dissociation transitions), 10 mM Mg-ATP outside [1]: 22.1%
- percent of dynamic traces (association/dissociation transitions), ATP outside and 10 µM vitamin B12 in the lumen [1]: 18.7%
- percent of dynamic traces (association/dissociation transitions), Mg-ATP on both sides of the membrane [1]: 13.2%
- percent of traces static at the low-FRET value 0.08 (dissociated), 10 mM Mg-ATP outside [1]: 19.6%
- percent of recorded traces with a dissociation (apo and AMP-PNP conditions) [2]: 1%
Substance: CbrT_A182C (S-component of the C-sensor, cysteine-less background, fluorophore-labelled) (natural protein)
